Results taken from patent US20140011214A1.

Columns and labels:
[1] = biological target: Antiparallel leucine zipper partner peptide Z′ fused to the C-terminal fragment of superpositive GFP (CspGFP, amino acids 158-231), expressed from pMRBAD-Z′-CspGFP; experiment: cell-based or functional assay
[2] = biological target: Antiparallel leucine zipper partner peptide Z′ fused to the C-terminal fragment of the stabilized GFP variant sg100 (Csg100GFP), expressed from pMRBAD-Z′-Csg100GFP; experiment: cell-based or functional assay

Row | Substance | cell fluorescence 1 hour after induction at 25° C., against split-frGFP Z/Z′ fusions (% more fluorescent) [1] | cell fluorescence after 24 hours at 37° C., against split-frGFP Z/Z′ fusions (% more fluorescent) [1] | maximum mean cell fluorescence, 12 hours at 25° C., against split-frGFP Z/Z′ fusions [1] [% brighter] | mean cell fluorescence (flow cytometry), 1 hour after induction at 25° C. [1] [fold] | mean cell fluorescence (flow cytometry), 2 hours after induction at 25° C. [1] [fold] | mean cell fluorescence (flow cytometry), 3 hours after induction at 25° C. [1] [fold] | mean cellular fluorescence (flow cytometry) in E. coli after 12 hours at 25° C., compared to uninduced cells [1] [fold] | mean cell fluorescence (flow cytometry), 3 hours after induction at 25° C. [2] [fold] | mean cellular fluorescence (flow cytometry) in E. coli after 12 hours at 25° C., compared to uninduced cells [2] [fold]
1 | N-terminal fragment of superpositive GFP (NspGFP, amino acids 1-157) fused to antiparallel leucine zipper peptide Z, expressed from pET11a-Z-NspGFP | 34 | 24 | 22 | 5 | 15 | 28 | 75 |  | 
2 | N-terminal fragment of the stabilized GFP variant sg100 (Nsg100GFP) fused to antiparallel leucine zipper peptide Z, expressed from pET11a-Z-Nsg100GFP |  |  |  |  |  |  |  | 1.2 | 2.3
